Reference: PMC4854733 (The Journal of Experimental Medicine, 2016)

How the values were obtained:
[1] = target: the molecule itself; experiment: negative-stain electron microscopy
SEC = target: the molecule itself; experiment: SEC
[2] = target: the molecule itself; experiment: fluorescence polarisation

B1: ASC^CARD-SUMO (domain or fragment)
chain: AAKPGLHFIDQHRAALIARVTNVEWLLDALYGKVLTDEQYQAVRAEPTNPSKMRKLFSFTPAWNWTCKDLLLQALRESQSYLVEDLERS
binding result [1]: binds

B2: GFP-ASC^CARD (domain or fragment)
chain: B1 chain
binding result (SEC): binds

B3: fluorescently labeled ASC^CARD-SUMO (domain or fragment)
chain: B1 chain
modifications: fluorophore joined by sortase at the C-terminal sortase motif
binding result [2]: binds
